From patent US20220265821A1 (PASCAL BIOSCIENCES, published 2022)
Positions count from the first letter of the chain named.

T1: human VpreB (on the pre-BCR-expressing human pre-B cell line NALM-6) (human, UniProt P12018 20-145)
T1 construct: On NALM-6 cells VpreB stands in the pre-BCR together with lambda-5 and the mu heavy chain; also called VPREB1; VpreB subunit of the SLC of human pre-BCR
T1 sequence: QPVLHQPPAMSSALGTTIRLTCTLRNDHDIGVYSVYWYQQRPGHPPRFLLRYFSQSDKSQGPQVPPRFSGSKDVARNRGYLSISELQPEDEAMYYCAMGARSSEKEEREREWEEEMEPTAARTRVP

B1: VpreB antibody 5-2D7 (recombinant mouse-human chimeric IgG1/kappa) (antibody, V domains shown)
VH: QVQLQQPGAELVKPGASVKLSCKASGYTFTSYWMQWVKQRPGQGLEWIGEINPSNGRINYNEKFKSKATLTVDISSSTAYMQLSSLTSEDSAVYYCARSGLLDYWGQGTTLTDSS
VL: DVLMTQTPLSLPVSLGDQASISCRSSQSLIHSNGNTYLHWSLQKPGQSPKLLIYKVSNRFSGVPDRFSGSGSGTDFTLKISSVEAEDLGVYFCSQSTYVPLTFGAGTKLELKR
notes: also called mAb 5-2D7
B2: VpreB antibody 5-11D1 (recombinant mouse-human chimeric IgG1/kappa) (antibody, V domains shown)
VH: EVQLEESGPSLVKPSQTLSLTCSVTGDSITSDYWTWIRKFPGNKLEYMGYISYSGRTYYNPSLKSRISITRDTSRNQYYLQLSSVTTEDTATYYCARERYYYGSLDYWGQGTTLTVSS
VL: B1 VL with I30V, S41Y, S82R, S96T, Y98H, L101P, A105G, L111I
notes: also called mAb 5-11D1
B3: VpreB antibody 5-4A9 (recombinant mouse-human chimeric IgG1/kappa) (antibody, V domains shown)
VH: B1 VH with Q1E, P7S, K19Q, I58N, S66R, I74T, D113V
VL: B1 VL with I30V, S41Y, K79T, S82R
notes: also called mAb 5-4A9
B4: VpreB antibody 5-14A8 (recombinant mouse-human chimeric IgG1/kappa) (antibody, V domains shown)
VH: B2 VH with K44I, Y53S, T57I, R75K
VL: B1 VL with S28G, I30V, S41Y, S82R, S96T, Y98H, L101P, A105G, L111I
notes: also called mAb 5-14A8
B5: VpreB antibody 5-9B12 (recombinant mouse-human chimeric IgG1/kappa) (antibody, V domains shown)
VH: B2 VH with R75K, N76K, S83N
VL: B1 VL with L3V, I30V, S41Y, S82R, S96T, Y98H, L101P, A105G, L111I
notes: also called mAb 5-9B12
B6: VpreB antibody 5-14H5 (recombinant mouse-human chimeric IgG1/kappa) (antibody, V domains shown)
VH: B1 VH with Y32N, Q35N, I74K, D113V
VL: B1 VL with I30V, S41Y, S82R, V99L, K108R
notes: also called mAb 5-14H5
B7: lambda-5 antibody 4-5G11 (recombinant mouse-human chimeric IgG1/kappa) (antibody)
heavy: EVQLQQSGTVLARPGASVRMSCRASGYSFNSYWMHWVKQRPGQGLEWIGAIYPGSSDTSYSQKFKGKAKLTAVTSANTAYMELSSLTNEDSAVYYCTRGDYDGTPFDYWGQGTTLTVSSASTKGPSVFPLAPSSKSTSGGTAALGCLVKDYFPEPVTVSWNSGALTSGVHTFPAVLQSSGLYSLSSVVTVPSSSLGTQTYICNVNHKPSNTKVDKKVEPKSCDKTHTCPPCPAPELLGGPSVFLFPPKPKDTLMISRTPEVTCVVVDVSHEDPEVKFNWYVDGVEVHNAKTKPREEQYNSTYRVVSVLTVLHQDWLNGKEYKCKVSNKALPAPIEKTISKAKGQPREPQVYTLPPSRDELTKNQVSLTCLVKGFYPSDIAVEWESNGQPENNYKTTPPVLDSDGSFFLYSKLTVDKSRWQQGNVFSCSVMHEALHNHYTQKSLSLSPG
light: DILMTQSPLTLSVTIGQPASISCKSGQSLLDSDGKTYLNWLLQRPGQSPKRLIYLVSKLHSGVPDRFTGSGSGTDFTLKISRVEAEDLGVYYCWQGTHFPLTFGAGTKLELKRTVAAPSVFIFPPSDEQLKSGTASVVCLLNNFYPREAKVQWKVDNALQSGNSQESVTEQDSKDSTYSLSSTLTLSKADYEKHKVYACEVTHQGLSSPVTKSFNRGEC
notes: also called mAb 4-5G11
B8: lambda-5 antibody 4-9H8 (recombinant mouse-human chimeric IgG1/kappa) (antibody)
heavy: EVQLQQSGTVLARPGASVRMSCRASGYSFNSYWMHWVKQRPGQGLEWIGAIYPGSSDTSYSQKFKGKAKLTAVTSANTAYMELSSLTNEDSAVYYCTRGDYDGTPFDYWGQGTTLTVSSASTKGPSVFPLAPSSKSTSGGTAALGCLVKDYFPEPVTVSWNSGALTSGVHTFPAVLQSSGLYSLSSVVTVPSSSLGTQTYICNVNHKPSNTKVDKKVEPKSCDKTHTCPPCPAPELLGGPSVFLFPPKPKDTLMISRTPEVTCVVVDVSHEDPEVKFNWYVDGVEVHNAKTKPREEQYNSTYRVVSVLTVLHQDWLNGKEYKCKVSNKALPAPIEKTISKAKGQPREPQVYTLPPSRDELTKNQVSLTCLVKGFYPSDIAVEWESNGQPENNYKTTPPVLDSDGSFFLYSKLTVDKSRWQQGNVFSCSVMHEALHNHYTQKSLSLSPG
light: B7 light with L3V
notes: also called mAb 4-9H8
B9: lambda-5 antibody 4-19A9 (recombinant mouse-human chimeric IgG1/kappa) (antibody, V domains shown)
VH: EVQLQQSGTVLARPGASVKMSCKASGYTFTSYWMHWVKQRPGQGLEWIGAIYPGNSDTSYNQKFKGKARLTAVTSASTAYMELSSLTNEDSAVYYCTRADYDGTPFDYWGQGTTLTVSS
VL: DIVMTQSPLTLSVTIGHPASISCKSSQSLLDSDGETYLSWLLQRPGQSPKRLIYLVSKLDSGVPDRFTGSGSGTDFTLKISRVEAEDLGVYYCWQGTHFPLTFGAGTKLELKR
notes: also called mAb 4-19A9
B10: lambda-5 antibody 4-7C1 (recombinant mouse-human chimeric IgG1/kappa) (antibody, V domains shown)
VH: B9 VH with K23R, A24P, G44D, R69K
VL: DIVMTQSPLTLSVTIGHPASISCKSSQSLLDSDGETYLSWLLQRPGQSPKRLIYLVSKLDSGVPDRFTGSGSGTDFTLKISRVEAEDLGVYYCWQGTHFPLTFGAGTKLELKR
notes: also called mAb 4-7C1
B11: lambda-5 antibody 4-20D2 (recombinant mouse-human chimeric IgG1/kappa) (antibody, V domains shown)
VH: B9 VH with T28S, R69K, A99G
VL: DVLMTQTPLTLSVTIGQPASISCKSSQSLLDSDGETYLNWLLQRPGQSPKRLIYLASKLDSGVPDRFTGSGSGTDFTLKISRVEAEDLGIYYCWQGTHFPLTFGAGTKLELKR
notes: also called mAb 4-20D2
B12: lambda-5 antibody 4-17G9 (recombinant mouse-human chimeric IgG1/kappa) (antibody, V domains shown)
VH: B9 VH with K23Q, S31N, K63N, R69E, S77T, N88D
VL: DIVMTQSPLTLSVTIGHPASISCKSSQSLLDSDGETYLSWLLQRPGQSPKRLIYLVSKLDSGVPDRFTGSGSGTDFTLKISRVEAEDLGVYYCWQGTHFPLTFGAGTKVELKR
notes: also called mAb 4-17G9
B13: lambda-5 antibody 4-18G6 (recombinant mouse-human chimeric IgG1/kappa) (antibody, V domains shown)
VH: B9 VH with S31N, I51V, N61S, K65T, R69K, E82D
VL: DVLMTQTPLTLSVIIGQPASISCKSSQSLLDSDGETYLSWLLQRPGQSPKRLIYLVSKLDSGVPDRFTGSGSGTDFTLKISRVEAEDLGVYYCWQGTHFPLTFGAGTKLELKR
notes: also called mAb 4-18G6
B14: lambda-5 antibody 4-6D12 (recombinant mouse-human chimeric IgG1/kappa) (antibody, V domains shown)
VH: B9 VH with S31N, R69K, Y95F
VL: B12 VL with V3L, K50E, V109L
notes: also called mAb 4-6D12
B15: lambda-5 antibody 4-7A6 (recombinant mouse-human chimeric IgG1/kappa) (antibody, V domains shown)
VH: B9 VH with A16T, P53L, S56T, R69K, T78S
VL: B12 VL with I2V, S7N, P8A, K24R, V109L
notes: also called mAb 4-7A6
B16: lambda-5 antibody 4-15E6 (recombinant mouse-human chimeric IgG1/kappa) (antibody, V domains shown)
VH: EVQLEESGAELVRSGASVKLSCTASGFNIKDYYLHWVKQRPEQGLEWIGWIDPENGNTDYAPKFQGKATMTADTSSNTAYLQLSSLTSEDTAVYYCNEGYYDYDTDSAMDYWGQGTSVTVSS
VL: B1 VL with I30V, N33D, N35I, S41Y, S82R, Y98R, L101W, A105G, L111I
notes: also called mAb 4-15E6
B17: lambda-5 antibody 4-12G1 (recombinant mouse-human chimeric IgG1/kappa) (antibody, V domains shown)
VH: B16 VH with N57A, T69S, S88F, T105A
VL: B1 VL with I30V, N33D, N35I, S41Y, S82R, T97A, Y98R, L101W, A105G, L111I
notes: also called mAb 4-12G1

Each binder was assayed against T1, human VpreB (on the pre-BCR-expressing …) (assay: flow cytometry, saturation binding of recombinant chimeric mAb to NALM-6 cells).
B1 gave an EC50 of less than 0.4 nM.
In the case of B2, the EC50 is reported as less than 0.4 nM.
In the case of B3, the EC50 is reported as less than 0.4 nM.
For B4, the EC50 was less than 0.4 nM.
In the case of B5, the EC50 is reported as less than 0.4 nM.
In the case of B6, the EC50 is reported as less than 0.4 nM.

What follows are binders tested against T2, human lambda-5 (on the pre-BCR-expressing human pre-B cell line NALM-6) (human, UniProt P15814 38-213) in the same assay as above.
T2 construct: On NALM-6 cells lambda-5 stands in the pre-BCR together with VpreB and the mu heavy chain; also called IGLL1; lambda-5 subunit of the SLC of human pre-BCR
T2 sequence (P15814 38-213 limits assumed): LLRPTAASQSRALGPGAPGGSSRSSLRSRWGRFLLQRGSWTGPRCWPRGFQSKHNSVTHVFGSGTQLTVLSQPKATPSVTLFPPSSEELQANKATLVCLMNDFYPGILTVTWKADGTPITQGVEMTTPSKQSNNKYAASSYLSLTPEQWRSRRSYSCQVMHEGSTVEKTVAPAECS
Binder B7 has an EC50 of less than 30 nM.
B8 showed an EC50 of less than 30 nM.
B9 gave an EC50 of less than 30 nM.
B10 was tested, and the EC50 was less than 30 nM.
With B11 the EC50 was less than 30 nM.
Binder B12 has an EC50 of less than 30 nM.
B13 was tested, and the EC50 was less than 30 nM.
B14 was tested, and the EC50 was less than 30 nM.
In the case of B15, the EC50 is reported as less than 30 nM.
B16 was tested, and the EC50 was less than 30 nM.
Work on B17 yielded an EC50 of less than 30 nM.

Molecular target: T1, human VpreB (on the pre-BCR-expressing …)
Test: as above
Remark: another data set of the same source
Protocol: (§1) Avidity of each VpreB antibody was determined by measuring saturation binding kinetics of antibody to NALM-6 cells using flow cytometry as follows. The cells were stained with a 3-fold descending titration of recombinant, chimeric VpreB antibody ranging from 133 nM to 0.002 nM. A PE/Cy5-labeled mouse anti-human IgG1 secondary antibody (Southern Biotech #9042-13) was used to detect cell-bound anti-VpreB or an IgG1 isotype control antibody (PAS-ISO6H4). The 50% effective concentration (EC₅₀) was calculated using GraphPad Prism software. Antibodies 5-4A9, 5-11D1, 5-14A8, and 5-14H5 all bound to VpreB-expressing NALM-6 cells with unusually strong binding avidity (<400 pM; FIG. 13, Table 16).
For B2, the EC50 was 0.143 nM.
For B3, the EC50 was 0.396 nM.
Work on B4 yielded an EC50 of 0.227 nM.
B6 showed an EC50 of 0.115 nM.

Molecular target: T1, human VpreB (on the pre-BCR-expressing …)
Test: as above
Remark: another data set of the same source
Protocol: as §1
The binding avidity of the VpreB mAbs 5-2D7 and 5-9B12 was also determined by measuring saturation binding kinetics of recombinant, chimeric mAb to NALM-6 cells using flow cytometry as described above. Both mAbs bound to VpreB-expressing NALM-6 cells with unusually strong avidity (<400 pM; FIG. 15, Table 17).
For B1, the EC50 was 0.34 nM.
Work on B5 yielded an EC50 of 0.12 nM.

Molecular target: T2, human lambda-5 (on the …)
Test: as above
Remark: another data set of the same source
Protocol: as §1
The avidity of each lambda-5 antibody was determined by measuring saturation binding kinetics of recombinant, chimeric mAb to NALM-6 cells using flow cytometry as described for the VpreB antibody saturation binding kinetics experiment. Antibodies 4-6D12, 4-5G11, 4-7A6, 4-7C1, 4-9H8, 4-12G1, 4-15E6, 4-17G9, 4-18G6, 4-19A9, and 4-20D2 all bound to VpreB- expressing NALM-6 cells with strong avidity (<30 nM; FIG. 16, Table 18).
For B7, the EC50 was 6.2 nM.
Work on B8 yielded an EC50 of 7.4 nM.
In the case of B9, the EC50 is reported as 8.1 nM.
B10 showed an EC50 of 8.4 nM.
B11 gave an EC50 of 26.3 nM.
Work on B12 yielded an EC50 of 9 nM.
Binder B13 has an EC50 of 10.2 nM.
Work on B14 yielded an EC50 of 1.9 nM.
In the case of B15, the EC50 is reported as 2.3 nM.
B16 gave an EC50 of 3.7 nM.
With B17 the EC50 was 4.5 nM.
